Measured values from PMC8621939, “Cryo-EM Structure of Mechanosensitive Channel YnaI Using SMA2000: Challenges and Opportunities” (Membranes, 2021).

Molecular target: the molecule itself
Experiment: cryo-EM structure; single-particle cryo-EM of SMA2000-purified YnaI, Titan Krios 300 kV; 3D classification without symmetry, final refinement with C7 symmetry, 2.4 Å; NCMN Buffer E (40 mM HEPES pH 7.8, 100 mM NaCl, 0.1 mM TCEP)

B1: low-conductance mechanosensitive channel-like (YnaI), wild type (natural protein, Escherichia coli, UniProt P0AEB5 1-343, looked up)
chain: MIAELFTNNALNLVIIFGSCAALILMSFWFRRGNRKRKGFLFHAVQFLIYTIIISAVGSIINYVIENYKLKFITPGVIDFICTSLIAVILTIKLFLLINQFEKQQIKKGRDITSARIMSRIIKITIIVVLVLLYGEHFGMSLSGLLTFGGIGGLAVGMAGKDILSNFFSGIMLYFDRPFSIGDWIRSPDRNIEGTVAEIGWRITKITTFDNRPLYVPNSLFSSISVENPGRMTNRRITTTIGLRYEDAAKVGVIVEAVREMLKNHPAIDQRQTLLVYFNQFADSSLNIMVYCFTKTTVWAEWLAAQQDVYLKIIDIVQSHGADFAFPSQTLYMDNITPPEQGR
notes: YnaI, MscS-like mechanosensitive channel of Escherichia coli, 343 aa, wild type, full length; Homoheptamer in SMA2000 native lipid particles; Only TM4, TM5 and the cytoplasmic domain are resolved in the map; seven phosphatidylethanolamine molecules were modelled; Cloned in pRSFDuet-1; also called mechanosensitive-like YnaI channel; SMA2000-YnaI; source: E. coli BL21 (DE3) pLysS, extracted from …
stoichiometry N: 7
